Results published in a protein production outcome set (Wang et al. 2014).

Assay: label from the status in PepcDB records

Sequence	protein production
ETRIIKGFECKPHSQPWQAALFEKTRLLCGATLIAPRWLLTAAHCLKPRYIVHLGQHNLQKEEGCEQTRTATESFPHPGFNNSLPNKDHRNDIMLVKMASPVSITWAVRPLTLSSRCVTAGTSCLISGWGSTSSPQLRLPHTLRCANITIIEHQKCENAYPGNITDTMVCASVQEGGKDSCQGDSGGPLVCNQSLQGIISWGQDPCAITRKPGVYTKVCKYVDWIQETMKNN	failed
MKAIITVVGKDKSGIVAGVSGKIAELGLNIDDISQTVLDEYFTMMAVVSSDEKQDFTYLRNEFEAFGQTLNVKINIQSAAIFEAMYNI	not failed
GVSVSPDETMLAFGEDVLSRRVYNIYFKDIESGAMITDVLENTEGRIVWGNDNRHVFYIAKDLQTLLGNRVYRHELGTPQSRDVLVYEEQDDAYYISLGKSLDESQIVLFHESTTTSEVSVLDANDPLSLFKPVLAREEGHEYSVSKLGDSYYVLTNWQATNFRLMKVAIKDAADKSKWQEVVAHNPNARLEDELVLKDYLIIQTRENGLTRIKVMPFNGQKPFELSFDEPAYVLGLDVNA	failed
MPRPLSHRNLPMTPQGHCDSRFAPLAEAFARLFDNPQERGAALCLEVGGETVVDLWGGVADKDGEQPWQRDTILNLFSCTKTFTAVAVLQLVAEGKLELDAPVAHYWPEFAAAGKAAISVRQLLCHRAGLPALREQMPPEALYDWQAMTTALAAEEPWWTPGEAHGYAPITYGWLLGEVIRRVDGREPGEAIVARTAAPLGLDFHVGLDDSQFGRVAHMARSKGSLGDAAAQRMLKTMMSEPLALTTRAFTNPPSILTSTNKPEWRRMQQPAANGHGNARALAGFYSGLLQGRLLEDELLGQLAHEHAVGEDRTLLTRTRFGLGTMLDQPGVANATYGLGPKAFGHPGAGGSIGFADPERDLAFSFVSNALGPYVLMDPRAQQLARVAGECL	failed
MYSGFTREKSDLRTEDVEITKEPFTLLIMGIEDYATDGQNGRTDSLMFATVNPKTQKISLMSIPRDSRVPIVGKNKEDKINAAHAYGGEEMAIKTVEGFLKVPVDHYVKIDFQGFKGIVDAVGGVTVDVPFDFWERSDVDYYKKIQFKQGQQELNGEEALAYVRMRKQDPNGDYGRAARQRQLLAAVAQKLNSTSTVFKIKDLTSVVGKYIKTDIPISDGLALYKKLSGFDPSTIQTLKLEGEDKKIGGIYYFLPDPNGVEAVRNEIKKELGLEHHHHHH	not failed
MKIKKNMIKGILLTTIVSFLAKIAADYLPSLGGEAIAMLLGILIGNTVFKDEKWMPGIKWAEKFPIEIGIALMGLTVTLRTISSLKIQGVIFILFQMMATILFVLWVGRRFIKVPSESAMLMASGNAVCGSSAIAAVAPAIRASDDQRRTAVATVSLSGVVLLFLLPVIGPNIFHGNNLLIGALIGGTVQSVGQVVGTASLVNQAVVTYATLFKMLRVILLSVVVFVFARFADRTRADEIKTDSKKVAVPWFVIVFIIFVFINSFFNLSNTVNTGAKSIANFFGIVNLAGIGLNLKWQTVKNSGQKFMIYGLVTVCFQILFAVLMINVLFG	failed
MPIDEWLVLNRIGIFENPSLRRYVSPFPPPELMGITSGLQSETGFAAHGADIYAALALASTIPITEYRHILDFGCGCGRLARMLKGHPHKISGCDIDLRHVKWIGQSLDFMNVKLSSVRPPIPFADDEMDAVISVSIFTHLTENSQDDFLAELFRVTRPGGTLFLTVHGAQALKRACHEQPIRHMLDMDEGRFRKAQQAFNQNKHGFVLQFGHLTTKPEKAFYTPRAIFRRIRDSFSRKTINMPFEYGIAFHPESYIREHWSKWFDILDYRHGAIHQFQDIVVLSPKK	failed
MANAVVAIAGSSGLIGSALTAALRAADHTVLRIVRRAPANSEELHWNPESGEFDPHALTDVDAVVNLCGVNIAQRRWSGAFKQSLRDSRITPTEVLSAAVADAGVATLINASAVGYYGNTKDRVVDENDSAGTGFLAQLCVDWETATRPAQQSGARVVLARTGVVLSPAGGMLRRMRPLFSVGLGARLGSGRQYMSWISLEDEVRALQFAIAQPNLSGPVNLTGPAPVTNAEFTTAFGRAVNRPTPLMLPSVAVRAAFGEFADEGLLIGQRAIPSALERAGFQFHHNTIGEALGYATTRPG	failed
MILLTKITLLLFSSIFFSYILYMKSHSFKKIEPRKCSLNLMIIGMAFIVVGEFLNFISSFVKYRVDIYVSFCFILGAILFVIFAIIFLNSVDNTLKCLYGCVYEDAMTGVYNRNGIKKIFKDTINKEDNFFVMSFDLDETKIINDNFGHLVGDEYIISAARAIKEVLGAKGVVGRTGGDEFAAIYISTDQEELKKVKTHINKRASEIFNGSNINISMGFSTYKKDGKNMKELFDLADKRMYQDKKNKRKADQRF	failed
SAESSKLSATTVEAAPAMIKAKDVISPSEKEESDQTEITKVSVLKNLDEKEMIKEFADRLQRLEAKVDLLVTKADLLAIKADIQELLISAKGEKVPAMKTSAKASSESDDSYMDTSSEDESSSAEEPVNKPAASAAKPATKDSLFSAGFKPAAKDSLFSAGFKPDSLFSAGFEPAAKDSLFSAGFKPGSLFSAGFEPAAKDSLFSAGFKPDSLFSVGVKPAAKDSLFSVGVNGRSFSVTGFDASLPVDDIKSALSKYFSSFGEITRVFVPPSHGTGGSLGYAYIDLKEGAEKALELGRHDVGGWDLVVGKAEPIRSGSTWPFPGRCGNQGRCTFC	failed
MRLAFWLYEGTALHGVSRVTNSMKGVHTVYHAPQGDDYITATYTMLERTPEFPKLSISVVRGQDLARGTSRLPGTVEQVDKHYKPELIVVAPSCSTALLQEDLGQMARASGVDQSKIMVYAVNPFRVAENEAAEGLFTELVRRFAAEQPKTEKPSVNLLGFTSLGFHLRSNLTSLRRMLKTLGIEVNVVAPWGAGIDDLKKLPAAWVNIAPFREIGCQAAGYLKEKFGMPSITEAPLGVNATLRWLRAIIAEVNKIGAEKGMAPMAMPELRDFSLDGQSAPSSVPWFARTADMESFSNKRAFVFGDATQVVGVTKFLKDELGMKIIGAGTYLPKQADWVREQLEGYLPGELMVTDKFQEVSAFIEEEMPELVCGTQMERHSCRKLDVPCMVISAPTHIENHLLGYYPFFGFDGADVMADRVYTSAKLGLEKHLIDFFGDAGLEYEAEEPEAFTEPTMSGNGTVASVSSAEAPSEAAVVTATATGELSWTAEAEKMLGKVPFFVRKKVRKNTDNYAREIGEPVVTADVFRKAKEHLGGLEHHHHHH	failed
MDPHVSHSAHLFSLRIAHALNEACVKDRYSFKRFGQDLLAGLTVGIIAIPLAMALAIASGVPPQYGLYTAIVGGFIIAMTGGSRYSVSGPTAAFVVLLYPIAQQFGLAGLLIATVMSGMMLVAMAMLRLGRLILYIPESVTLGFTAGIGVVIATLQLKDFFGLQIEHMPEQYFAKLMALGQALPSLHLPSLFIAAATLATMLLWPRLKIPVPAHLPAIALGSILALILNAMGAEIETIGTRFHYQLTDGGIGSGIPAVLPHFEWPWLQTGPNGQAFEFNLAAFQALLPAAFAIAMLGAIESLLCAVVLDGMTGKRHSANSELLGQGIGNIIAPFFGGIPATAAIARSAANVKAGAQSPIASMIHALVVLIGLVALAGILAYLPMSAMAALLLVVAWNMSEAPKAVHLLKTAPTSDILVFLSCFSLTVIFDMVIAISVGIILAALLFMKEIAEMTKLYDISSNKRYVDQSLPADWAVLKINGPLFFAAADRIFAEIASLTQDKQVIVLYLDGVSILDAGGLAALSKLIEKCKLNQTKLLITDLQFQPIRTLAKAKIQPVEGVLKFYPTLREALTEAPSPELEATPEATD	failed
MNRKILVTGATGSNGTEIVKRLAAKNVQVRAMVRDFDRAKKIAFPNVEVVEGNFDRPETLLEALAEVDRAFLLTNSTERAEAQQLAFVDAARQNGVKHIVKLSQFAADAHSPVRFLRYHAAVEAAIQGSGMTYTFLRPNLFMQGLLNFQSTITSQNAFYAAISDAKVSVVDVRDIADVAVVALTETEHEGKIYNLTGPQALTHAEMAEQLSAALNRQIAFVDIPSEVMRDQLLNIGMPPWQADGVIEDYAHYRRNEAAAVSSGIQDAIGKEPRSFNTFACDYAAMFG	failed
MNPENKMMLMAYGIFAIAGIISGILAYAPLGWIIGWIIYILAPKLLLNLVPDLPEELRNERVILRKTFWSFFFFWLYFTGLTYTLITNYEPVAYYEKALYYNITKG	failed
MKRAYVLLIGLSMLLISLIVPFPLALSFVILAGLFIAHFSKMEEKEVNMIITATVSLFIGLLGGLLGSMIHHNISSTWTLLSAHGGLFLIALIGYFFMVLILMTLGSMIDKVISKARSKSL	failed
